The source of these data is publication PMC6937306.

Where “and” joins values, the source holds several entries; their conditions need not be identical. Equal entries are not always repeated. Bounds are passed on as bounds.

The target in experiment [1] is RAGE C2 domain (human). Description: ESI-MS under denaturing conditions; 50% acetonitrile and 0.1% formic acid added to the protein sample.
Experiment [2] addresses RAGE C2 domain (human). Description: SEC-MALS; Superdex 200 Increase 10/300, 25 mM Tris-Cl, 0.2 M NaCl, pH 8.0, room temperature, no detergent; C2 fractions re-chromatographed separately.
Experiment [3] has as its target RAGE C2 domain (human). Kind of experiment: AUC; sedimentation velocity, 20 C, 40,000 rpm, 25 mM Tris pH 7.5, 200 mM NaCl, absorbance 280 nm; c(s) distribution (bimodal f/f0 for C2).
For experiment [4], the target named is RAGE C2 domain (human). Description: native MS; about 10 uM protein; 100 mM ammonium acetate for V_C1 and C2, 500 mM for V_C1_C2; nano-ESI.
Experiment [5] deals with RAGE C2_TM_CT (C2 domain, transmembrane region and cytoplasmic tail) (human). Kind of experiment: SEC-MALS; Superdex 200 Increase 10/300, 25 mM Tris-Cl, 0.2 M NaCl, pH 8.0, with 2x CMC DDM, room temperature; 'protein conjugate' analysis (ASTRA) of protein and detergent masses. (In general: SEC sorts molecules by how far they enter the pores of the column.)
The target is the same in experiment [6]. Kind of experiment: ESI-MS under denaturing conditions; 50% acetonitrile and 0.1% formic acid added to the protein sample.
For experiment [7], the target named is RAGE C2_TM_CT Mutant 1 (four glycines in the region of the GxxxG motif mutated to alanine) (human). Description: SEC-MALS; Superdex 200 Increase 10/300, 25 mM Tris-Cl, 0.2 M NaCl, pH 8.0, with 2x CMC DDM, room temperature; 'protein conjugate' analysis (ASTRA) of protein and detergent masses.
Experiment [8] addresses RAGE C2_TM_CT Mutant 2 (six amino acids that cover the GxxxG motif deleted) (human). Described as above.
Experiment [9] deals with RAGE V_C1 (V and C1 domains) (human). Kind of experiment: native MS; about 10 uM protein; 100 mM ammonium acetate for V_C1 and C2, 500 mM for V_C1_C2; nano-ESI.
The target of experiment [10] is RAGE V_C1_C2 (extracellular part of RAGE) (human). Kind of experiment: AUC; sedimentation velocity, 20 C, 40,000 rpm, 25 mM Tris pH 7.5, 200 mM NaCl, absorbance 280 nm; c(s) distribution (bimodal f/f0 for C2).
The target is the same in experiment [11]. Kind of experiment: native MS; about 10 uM protein; 100 mM ammonium acetate for V_C1 and C2, 500 mM for V_C1_C2; nano-ESI.
The target of experiment [12] is full-length RAGE (receptor for advanced glycation end-products) (human) (UniProt Q15109). Kind of experiment: AUC; sedimentation velocity, 20 C, 42,000 rpm, 25 mM Tris pH 7.5, 200 mM NaCl with DDM; absorbance 280 nm and interference; f/fo analysis with the GUSSI Membrane Protein module for FL_RAGE.
Experiment [13] shares this target. Description: native MS; FL_RAGE about 10 uM in 600 mM ammonium acetate with 0.04% (2x CMC) Triton X-100; nano-ESI, collisional release from the micelle.

Broadly, the stoichiometry N is a count of units in the complex or per binding partner. In [1], RAGE C2 domain (domain or fragment) displayed a fraction of dimeric peaks under denaturing conditions of 27% and a stoichiometry N of 2. The stoichiometry N in [2] is 2. Moreover, in experiment [3], the percent of the total signal in the dimer was > 65% and the stoichiometry N was found to be 2. In experiment [4], the fraction of dimeric signals worked out at 33% and the stoichiometry N is 2.

“RAGE C2_TM_CT (C2 domain, transmembrane region and cytoplasmic tail) (domain or fragment)”: the stoichiometry N in [5] was 2; in experiment [6], 2 and 4 and 6.

For the substance “RAGE C2_TM_CT Mutant 1 (four glycines in the region of the GxxxG motif mutated to alanine) (domain or fragment)”, the stoichiometry N in experiment [7] was 2 and 3.

Substance “RAGE C2_TM_CT Mutant 2 (six amino acids that cover the GxxxG motif deleted) (domain or fragment)” gave a stoichiometry N in experiment [8] of 2.

In experiment [9], “RAGE V_C1 (V and C1 domains) (domain or fragment)” returned a fraction of dimeric signals of 12% and a stoichiometry N of 2.

In experiment [10], “RAGE V_C1_C2 (extracellular part of RAGE) (domain or fragment)” showed a percent of the signal in the dimer peak of 17% and a stoichiometry N of 2. In [11], the fraction of dimers came out at 11% and the stoichiometry N amounted to 2.

As for “full-length RAGE (receptor for advanced glycation end-products) (from UniProt Q15109 23-404)”, the stoichiometry N is 2 and 3 in experiment [12]; 2 and 3 and 4 in experiment [13].
